In patent US20210054055A1 one finds FRNT50 (focus reduction neutralization on Vero cells) data, which are given here for two molecules.

The assay has as its target Dengue virus serotype 4 (DENV4) virions, envelope protein E (Dengue virus 4).

B1: Anti-ZIKV clone DT168(A)-D1_G-9E (G9E) (antibody, V domains shown)
VH: EVQLVESGGGVVQPGRSLRLSCVASGFAFSNYHMHWVRQAPGKGLEWVAIIWDDGSDQYYADSVKGRFTISRDNSKNTLFLQMNRLRAEDTALYYCVGGSSAYNGDNGWREAASLDDWGQGTLVTVSS
VL: QSALTQPASVSGSPGQSITIFCSGSSNDVGGYNYVSWYQQYPGKVPKLLIYDVNSRPSGVSNRFSGSKSGNTASLTISGLQAEDEADYYCSSYTSRRTWVFGGGTIVTVL
On to B1, for which the FRNT50 (focus reduction neutralization on Vero cells) was above 10000 ng/mL.

B2: Anti-ZIKV clone DT168(A)-D1_A-9E (A9E) (antibody, V domains shown)
VH: EVQLLESGGGLVQAGGSLRLSCAASGFTFDTYAMSWVRQPPGKGLEWVSAISTGGGSKYYADSVKGRLTISRDNSQNTLYLQMSSLRADDTAVYYCARSDFWRSGRYYYYMDVWGRGTTVTVSS
VL: QSALTQPASVSASPGQSITISCTGTHFDIVDYDYLSWYQQHPGNAPKLLIYGVSNRPSGVSSRFSGSKSGNTASLTISGLQAEDEGDYYCSSYSISSTLLVFGGGTKLSV
Take B2: the FRNT50 (focus reduction neutralization on Vero cells) was above 10000 ng/mL.
